Data taken from publication PMC6556216.

Molecular target: Maporal virus (MPRLV) Gn/Gc virus-like particles (Maporal virus (MPRLV))
Assay: BLI

soluble PCDH1 EC1-EC2 (sEC1–2) (from UniProt Q08174-1 58-284) (domain or fragment)
Kd: 7 nM
